Legend:
[1] = molecular target: T1, human IgG Fc fragment (ICN) (human); assay: SPR (BIAcore 2000), human Fc immobilised, rIGBPMA 1 mg/ml as analyte
T1 construct: domain: Fc fragment; also called human Fc fragment; Fc (human) fragment

human IgE (Serotech) = human IgE (Serotech) (human); assay: SPR (BIAcore 2000), human IgE against guinea pig IgG on the same chip

B1: recombinant IGBPMA (rIGBPMA), N-terminal 26 amino acid truncated, C-terminal 6-His-tag, expressed in (other)
chain: YEVYTGRGVTITVDNTQYEIPADLEKIFQKPKGFSVGSLLVALQEKGIPVNVDEKTGVILGITIDKVRVPFPVSIDLRFKLDNQIYLIPRDLAKLITVLEKKGMPSKILFILYTRYGVVPVRDSNGIVVAISFNGKQFKVKPEPLTAVVILGQKFILPRDTRKMVEFVHSKQSHPEIGFIFLKALKSAGFMLINDDDGAMRSIQKGAQIIKLGFEIRIQVIYGKTTYHVPKDLMRLVKDVRSLGPQEIQSVMKQLKAFDVQVKKEGSKLTILFNSVRYEVDLKSGNVKGHHHHHH
notes: also called soluble rIGBPMA; Clone No. F6
fold of binding over non-specific binding (BSA, F(ab)2) [1]: 2 fold | fold of binding signal against IgG (human IgE (Serotech)): 2 fold
